B1: anti-NGF canine IgGB antibody, Fc variant A426H + Y436H (antibody, part only; not given: anti-NGF variable domains and light chain, not shown: another chain or arm of the molecule; small tags and cut ends)
Fc: APEMLGGPSVFIFPPKPKDTLLIARTPEVTCVVVDLDPEDPEVQISWFVDGKQMQTAKTQPREEQFNGTYRVVSVLPIGHQDWLKGKQFTCKVNNKALPSPIERTISKARGQAHQPSVYVLPPSREELSKNTVSLTCLIKDFFPPDIDVEWQSNGQQEPESKYRTTPPQLDEDGSYFLYSKLSVDKSRWQRGDTFICHVMHEALHNHHTQESLSHSPGK
B2: anti-NGF canine IgGB antibody, Fc variant A426H + T286Y (antibody, part only; not given: anti-NGF variable domains and light chain, not shown: another chain or arm of the molecule; small tags and cut ends)
Fc: B1 Fc with T56Y, H208Y
B3: anti-NGF canine IgGB antibody, Fc variant A426H + D312P (antibody, part only; not given: Anti-NGF variable domains, not shown: another chain or arm of the molecule; small tags and cut ends)
Fc: B1 Fc with D82P, H208Y
B4: anti-NGF canine IgGB antibody, Fc variant A426Y + D312P (antibody, part only; not given: anti-NGF variable domains and light chain, not shown: another chain or arm of the molecule; small tags and cut ends)
Fc: B1 Fc with D82P, H198Y, H208Y
B5: anti-NGF canine IgGB antibody, Fc variant A426H + T286L (antibody, part only; not given: Anti-NGF variable domains, not shown: another chain or arm of the molecule; small tags and cut ends)
Fc: B1 Fc with T56L, H208Y
B6: anti-NGF canine IgGB antibody, Fc variant A426Y + T286L + Y436H (antibody, part only; not given: anti-NGF variable domains and light chain, not shown: another chain or arm of the molecule)
Fc: B1 Fc with T56L, H198Y
B7: anti-NGF canine IgGB antibody, Fc variant A426H (antibody, part only; not given: Anti-NGF variable domains, not shown: another chain or arm of the molecule; small tags and cut ends)
Fc: B1 Fc with H208Y
B8: anti-NGF canine IgGB antibody, Fc variant A426Y + Y436H (antibody, part only; not given: anti-NGF variable domains and light chain, not shown: another chain or arm of the molecule; small tags and cut ends)
Fc: B1 Fc with H198Y
B9: anti-NGF canine IgGB antibody, Fc variant A426Y (antibody, part only; not given: Anti-NGF variable domains, not shown: another chain or arm of the molecule; small tags and cut ends)
Fc: B1 Fc with H198Y, H208Y
B10: anti-NGF canine IgGB antibody, Fc variant A426Y + T286L (antibody, part only; not given: Anti-NGF variable domains, not shown: another chain or arm of the molecule; small tags and cut ends)
Fc: B1 Fc with T56L, H198Y, H208Y
B11: canine IgGB Fc (CH2-CH3) N434H with N-terminal SASA tag (Fc fusion, part only; not given: SASA tag, not shown: another chain or arm of the molecule; small tags and cut ends)
Fc: B1 Fc with H198A, N206H, H208Y
B12: canine IgGB Fc (CH2-CH3) YTE variant (L252Y/A254T/T256E) with N-terminal SASA tag (Fc fusion, part only; not given: SASA tag, not shown: another chain or arm of the molecule; small tags and cut ends)
Fc: B1 Fc with L22Y, A24T, T26E, H198A, H208Y
B13: canine IgGB Fc (CH2-CH3) Y436H with N-terminal SASA tag (Fc fusion, part only; not given: SASA tag, not shown: another chain or arm of the molecule; small tags and cut ends)
Fc: B1 Fc with H198A
B14: canine IgGB Fc (CH2-CH3) T286W with N-terminal SASA tag (Fc fusion, part only; not given: SASA tag, not shown: another chain or arm of the molecule; small tags and cut ends)
Fc: B1 Fc with T56W, H198A, H208Y
B15: canine IgGB Fc (CH2-CH3) T286Y with N-terminal SASA tag (Fc fusion, part only; not given: SASA tag, not shown: another chain or arm of the molecule; small tags and cut ends)
Fc: B1 Fc with T56Y, H198A, H208Y
B16: canine IgGB Fc (CH2-CH3) T286L with N-terminal SASA tag (Fc fusion, part only; not given: SASA tag, not shown: another chain or arm of the molecule; small tags and cut ends)
Fc: B1 Fc with T56L, H198A, H208Y
B17: canine IgGB Fc (CH2-CH3) T286F with N-terminal SASA tag (Fc fusion, part only; not given: SASA tag, not shown: another chain or arm of the molecule; small tags and cut ends)
Fc: B1 Fc with T56F, H198A, H208Y
B18: anti-NGF canine IgGB antibody, Fc variant N434R + Y436H (antibody, part only; not given: Anti-NGF variable domains, not shown: another chain or arm of the molecule)
Fc: B1 Fc with H198A, N206R
B19: anti-NGF canine IgGB antibody, Fc variant N434R + D312P (antibody, part only; not given: anti-NGF variable domains and light chain, not shown: another chain or arm of the molecule)
Fc: B1 Fc with D82P, H198A, N206R, H208Y
B20: anti-NGF canine IgGB antibody, Fc variant A426Y + N434R (antibody, part only; not given: anti-NGF variable domains and light chain, not shown: another chain or arm of the molecule; small tags and cut ends)
Fc: B1 Fc with H198Y, N206R, H208Y
B21: anti-NGF canine IgGB antibody, Fc variant N434Y (antibody, part only; not given: Anti-NGF variable domains, not shown: another chain or arm of the molecule)
Fc: B1 Fc with H198A, N206Y, H208Y
B22: anti-NGF canine IgGB antibody, Fc variant N434R (antibody, part only; not given: Anti-NGF variable domains, not shown: another chain or arm of the molecule)
Fc: B1 Fc with H198A, N206R, H208Y
B23: anti-NGF canine IgGB antibody, Fc variant N434R + T286Y (antibody, part only; not given: anti-NGF variable domains and light chain, not shown: another chain or arm of the molecule)
Fc: B1 Fc with T56Y, H198A, N206R, H208Y
B24: anti-NGF canine IgGB antibody, Fc variant N434R + T286L (antibody, part only; not given: Anti-NGF variable domains, not shown: another chain or arm of the molecule)
Fc: B1 Fc with T56L, H198A, N206R, H208Y
B25: canine IgGB Fc (CH2-CH3) N434S with N-terminal SASA tag (Fc fusion, part only; not given: SASA tag, not shown: another chain or arm of the molecule; small tags and cut ends)
Fc: B1 Fc with H198A, N206S, H208Y

Substitutions are numbered along the chain they refer to. Numbers in names are those of the source. Where “and” joins values, the source holds several entries; their conditions need not be identical. Equal entries are not always repeated.

In the first assay the target is canine FcRn (FcRn large subunit with canine beta-2-microglobulin) (canine). The assay can be described thus: SPR pH 5.9, IgG coupled to C1 chip, 1:1 kinetic fit.
The term Kd denotes the concentration at which binding is half-saturated. What is called koff is a measure of how fast the partners let go of each other. Low readings indicate a long-lived complex, high ones a short-lived complex. One may read the kon as a measure of how fast the partners come together. High values mean fast association, low ones slow association. With B1, the Kd was 161 nM, the koff amounted to 0.13 s⁻¹ and the kon stood at 808000 M⁻¹ s⁻¹.
In the same order, the values of B2 are 21.3 nM, 0.0286 s⁻¹ and 1.34e+06 M⁻¹ s⁻¹.
Take B3: the Kd worked out at 40.5 nM, the koff came to 0.0532 s⁻¹ and the kon turned out to be 1.31e+06 M⁻¹ s⁻¹.
In the same order, the values of B4 are 45.1 nM, 0.0497 s⁻¹ and 1.1e+06 M⁻¹ s⁻¹.
In the case of B5, the Kd was 35.8 nM, the koff was determined as 0.0417 s⁻¹ and the kon was found to be 1.16e+06 M⁻¹ s⁻¹.
Molecule B6 gave a Kd of 7.26 nM, a koff of 0.0412 s⁻¹ and a kon of 5.67e+06 M⁻¹ s⁻¹.
In the same order, the values of B7 are 115 nM, 0.142 s⁻¹ and 1.24e+06 M⁻¹ s⁻¹.
Turning to B8, the Kd was found to be 57.7 nM, the koff was found to be 0.0608 s⁻¹ and the association rate constant (kon) worked out at 1.06e+06 M⁻¹ s⁻¹.
B9 showed a Kd of 129 nM, a koff of 0.113 s⁻¹ and a kon of 878000 M⁻¹ s⁻¹.
Consider B10, for which the Kd turned out to be 42.3 nM, the koff is 0.0436 s⁻¹ and the kon was 1.03e+06 M⁻¹ s⁻¹.

Another assay has the same target. Nature of the assay: SPR pH 5.5, SASA-Fc captured on BSA, FcRn 100-800 nM.
B11 yielded a Kd of 247 nM, a koff of 0.102 s⁻¹ and a kon of 411000 M⁻¹ s⁻¹.
Turning to B12, the Kd was determined as 184 nM, the koff worked out at 0.046 s⁻¹ and the kon was found to be 250000 M⁻¹ s⁻¹.

Another assay has the same target. The assay can be described thus: SPR pH 6.0, SASA-Fc captured on BSA, FcRn 200 nM.
For B13, the Kd is 447 nM and 532 nM; the koff is 0.134 s⁻¹ and 0.141 s⁻¹; the kon was 300000 M⁻¹ s⁻¹ and 265000 M⁻¹ s⁻¹.
For B14, the Kd is 127 nM and 118 nM; the koff was 0.0982 s⁻¹ and 0.112 s⁻¹; the kon is 774000 M⁻¹ s⁻¹ and 945000 M⁻¹ s⁻¹.
As for B15, the Kd was 69.8 nM and 116 nM; the kon was 410000 M⁻¹ s⁻¹ and 1.11e+06 M⁻¹ s⁻¹.
Regarding B16, the Kd was 174 nM and 208 nM; the koff was 0.0565 s⁻¹ and 0.103 s⁻¹; the kon was 324000 M⁻¹ s⁻¹ and 496000 M⁻¹ s⁻¹.
Regarding B17, the Kd was 157 nM and 185 nM; the koff is 0.0527 s⁻¹ and 0.061 s⁻¹; the kon was 336000 M⁻¹ s⁻¹ and 330000 M⁻¹ s⁻¹.

For another assay the target is unchanged. The assay can be described thus: SPR pH 7.4, FcRn coupled at high density, IgG 400 nM.
Take B18: the Kd amounted to 382 nM, the koff amounted to 0.255 s⁻¹ and the kon came out at 666000 M⁻¹ s⁻¹.
B19 came in with a Kd of 104 nM and a kon of 4.95e+08 M⁻¹ s⁻¹.
Molecule B20 returned a Kd of 129 nM.
B2 came in with a Kd of 940 nM, a koff of 0.128 s⁻¹ and a kon of 136000 M⁻¹ s⁻¹.
B3: the Kd is 722 nM, the koff was 0.156 s⁻¹ and the kon was 217000 M⁻¹ s⁻¹.
In turn, B21 returned a Kd of 80.2 nM, a koff of 0.23 s⁻¹ and a kon of 2.87e+06 M⁻¹ s⁻¹.
In turn, B4 returned a Kd of 2900 nM, a koff of 0.171 s⁻¹ and a kon of 58900 M⁻¹ s⁻¹.
Consider B22, for which the Kd amounted to 234 nM and the kon came out at 8.25e+08 M⁻¹ s⁻¹.
As to B5, the Kd was 1600 nM, the koff came to 0.13 s⁻¹ and the kon came to 81200 M⁻¹ s⁻¹.
In turn, B23 yielded a Kd of 81.2 nM and a kon of 3.4e+08 M⁻¹ s⁻¹.
With B10, the Kd was 1120 nM, the koff stood at 0.092 s⁻¹ and the kon worked out at 82300 M⁻¹ s⁻¹.
Take B24: the Kd was found to be 134 nM.

For the next assay the target is unchanged. Nature of the assay: SPR pH 5.5, SASA-Fc captured on BSA, FcRn 200 nM.
On to B25, for which the Kd is 924 nM and 1050 nM; the koff is 0.207 s⁻¹ and 0.209 s⁻¹; the kon is 225000 M⁻¹ s⁻¹ and 199000 M⁻¹ s⁻¹.

Another assay shares this target. The assay can be described thus: SPR pH 6.0, SASA-Fc captured on BSA, FcRn 100-800 nM.
B13: the Kd came to 386 nM, the koff was determined as 0.145 s⁻¹ and the kon stood at 375000 M⁻¹ s⁻¹.
The molecule B14 registered a dissociation constant Kd of 565 nM, a koff of 0.195 s⁻¹ and a kon of 345000 M⁻¹ s⁻¹.
In the same order, the values of B12 are 210 nM, 0.0659 s⁻¹ and 314000 M⁻¹ s⁻¹.
B15: the Kd was found to be 632 nM, the off-rate constant (koff) was found to be 0.162 s⁻¹ and the kon came out at 256000 M⁻¹ s⁻¹.
Taken in the same sequence, the figures for B16 were 777 nM, 0.253 s⁻¹ and 325000 M⁻¹ s⁻¹.
B17: the Kd came out at 616 nM, the koff turned out to be 0.19 s⁻¹ and the kon is 309000 M⁻¹ s⁻¹.

The next assay has the same target. Nature of the assay: SPR pH 6.0, IgG coupled to CM5, FcRn 50-800 nM.
As to B18, the Kd came out at 320 nM, the koff was found to be 0.0838 s⁻¹ and the kon is 262000 M⁻¹ s⁻¹.
Turning to B19, the Kd was determined as 197 nM, the koff was determined as 0.048 s⁻¹ and the kon turned out to be 244000 M⁻¹ s⁻¹.
In turn, B20 registered a Kd of 288 nM, a koff of 0.0591 s⁻¹ and a kon of 206000 M⁻¹ s⁻¹.
B1 had a Kd of 2270 nM, a koff of 0.202 s⁻¹ and a kon of 88700 M⁻¹ s⁻¹.
With B2, the Kd came out at 255 nM, the koff stood at 0.0409 s⁻¹ and the kon was determined as 160000 M⁻¹ s⁻¹.
In the same order, the values of B3 are 376 nM, 0.0547 s⁻¹ and 145000 M⁻¹ s⁻¹.
Taken in the same sequence, the figures for B21 were 70.8 nM, 0.0181 s⁻¹ and 255000 M⁻¹ s⁻¹.
In turn, B4 returned a Kd of 421 nM, a koff of 0.0577 s⁻¹ and a kon of 137000 M⁻¹ s⁻¹.
B22 gave a Kd of 497 nM, a koff of 0.107 s⁻¹ and a kon of 216000 M⁻¹ s⁻¹.
For the molecule B5, the Kd amounted to 464 nM, the koff was 0.069 s⁻¹ and the kon came out at 149000 M⁻¹ s⁻¹.
The molecule B7 registered a Kd of 1040 nM, a koff of 0.124 s⁻¹ and a kon of 119000 M⁻¹ s⁻¹.
B23 returned a Kd of 93.7 nM, a koff of 0.0221 s⁻¹ and a kon of 236000 M⁻¹ s⁻¹.
B8 registered a Kd of 507 nM, a koff of 0.0777 s⁻¹ and a kon of 153000 M⁻¹ s⁻¹.
As to B9, the Kd was determined as 1130 nM, the koff was found to be 0.134 s⁻¹ and the kon amounted to 119000 M⁻¹ s⁻¹.
In the case of B10, the Kd was determined as 327 nM, the koff stood at 0.0559 s⁻¹ and the kon is 171000 M⁻¹ s⁻¹.
For the molecule B24, the Kd amounted to 173 nM, the koff was determined as 0.031 s⁻¹ and the kon came out at 180000 M⁻¹ s⁻¹.

These data come from patent publication US20240327497A1.
